Experimental data as given in patent US20210139548A1 (published 2021).
*1 amine or outer side, *2 acyl side, *3 side chain or, on linkers, in order; H or OH if unused. Side-chain parts run from the residue outwards. The star is where a group is joined. C18 diacid = O=C(O)CCCCCCCCCCCCCCCCC(=O)*; γGlu = O=C(O)[C@H](CCC(=O)[*:2])N[*:1]; Isovaleryl = CC(C)CC(=O)*; AEEA = NCCOCCOCC(=O)O

T1: human neuropeptide Y2 receptor (human, UniProt P49146 1-381)
T1 construct: whole, on cells; also called hNPY2 receptor; hNPY2-R
T1 sequence (looked up): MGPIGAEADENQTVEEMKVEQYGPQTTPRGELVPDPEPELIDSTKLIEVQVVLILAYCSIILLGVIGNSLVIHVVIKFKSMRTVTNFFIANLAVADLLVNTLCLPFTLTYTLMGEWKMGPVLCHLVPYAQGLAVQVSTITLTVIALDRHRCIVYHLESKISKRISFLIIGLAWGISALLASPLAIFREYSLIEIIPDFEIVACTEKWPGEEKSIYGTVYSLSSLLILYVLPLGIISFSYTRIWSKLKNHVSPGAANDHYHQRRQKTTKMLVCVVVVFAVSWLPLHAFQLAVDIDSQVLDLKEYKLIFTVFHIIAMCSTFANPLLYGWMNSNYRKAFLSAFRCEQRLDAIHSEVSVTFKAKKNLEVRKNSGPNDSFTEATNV


Target: T1, human neuropeptide Y2 receptor
Test: radioligand competition (125I-PYY(1-36)), hNPY2R membranes
Outline: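 Commercial human Y2 receptor membranes (0.5 μg protein/well) were incubated with peptide for 2 h at room temperature in 50 mM HEPES, 5 mM MgCl₂, 1 mM CaCl₂, pH 7.4, with 0.2% ovalbumin. Bound radioligand was separated on PEI-soaked GF/C filters and counted by scintillation, and IC₅₀ came from nonlinear sigmoidal regression.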

Ki [nM] | Binder
1 | Isovaleryl-APAK([AEEA-AEEA-γGlu-C18 diacid])PEEDASPAELQRYYVSLRHYYNWLTRQRY-NH2 (SMILES CC(C)CC(=O)N[C@@H](C)C(=O)N1CCC[C@H]1C(=O)N[C@@H](C)C(=O)N[C@@H](CCCCNC(=O)COCCOCCNC(=O)COCCOCCNC(=O)CC[C@H](NC(=O)CCCCCCCCCCCCCCCCC(=O)O)C(=O)O)C(=O)N1CCC[C@H]1C(=O)N[C@@H](CCC(=O)O)C(=O)N[C@@H](CCC(=O)O)C(=O)N[C@@H](CC(=O)O)C(=O)N[C@@H](C)C(=O)N[C@@H](CO)C(=O)N1CCC[C@H]1C(=O)N[C@@H](C)C(=O)N[C@@H](CCC(=O)O)C(=O)N[C@@H](CC(C)C)C(=O)N[C@@H](CCC(N)=O)C(=O)N[C@@H](CCCNC(=N)N)C(=O)N[C@@H](Cc1ccc(O)cc1)C(=O)N[C@@H](Cc1ccc(O)cc1)C(=O)N[C@H](C(=O)N[C@@H](CO)C(=O)N[C@@H](CC(C)C)C(=O)N[C@@H](CCCNC(=N)N)C(=O)N[C@@H](Cc1c[nH]cn1)C(=O)N[C@@H](Cc1ccc(O)cc1)C(=O)N[C@@H](Cc1ccc(O)cc1)C(=O)N[C@@H](CC(N)=O)C(=O)N[C@@H](Cc1c[nH]c2ccccc12)C(=O)N[C@@H](CC(C)C)C(=O)N[C@H](C(=O)N[C@@H](CCCNC(=N)N)C(=O)N[C@@H](CCC(N)=O)C(=O)N[C@@H](CCCNC(=N)N)C(=O)N[C@@H](Cc1ccc(O)cc1)C(N)=O)[C@@H](C)O)C(C)C) [Compound 179]
3.85 | Isovaleryl-APEK([AEEA-AEEA-γGlu-C18 diacid])PEEDASPEETQQYYVSLRHYYNWLTRQRY-NH2 (SMILES CC(C)CC(=O)N[C@@H](C)C(=O)N1CCC[C@H]1C(=O)N[C@@H](CCC(=O)O)C(=O)N[C@@H](CCCCNC(=O)COCCOCCNC(=O)COCCOCCNC(=O)CC[C@H](NC(=O)CCCCCCCCCCCCCCCCC(=O)O)C(=O)O)C(=O)N1CCC[C@H]1C(=O)N[C@@H](CCC(=O)O)C(=O)N[C@@H](CCC(=O)O)C(=O)N[C@@H](CC(=O)O)C(=O)N[C@@H](C)C(=O)N[C@@H](CO)C(=O)N1CCC[C@H]1C(=O)N[C@@H](CCC(=O)O)C(=O)N[C@@H](CCC(=O)O)C(=O)N[C@H](C(=O)N[C@@H](CCC(N)=O)C(=O)N[C@@H](CCC(N)=O)C(=O)N[C@@H](Cc1ccc(O)cc1)C(=O)N[C@@H](Cc1ccc(O)cc1)C(=O)N[C@H](C(=O)N[C@@H](CO)C(=O)N[C@@H](CC(C)C)C(=O)N[C@@H](CCCNC(=N)N)C(=O)N[C@@H](Cc1c[nH]cn1)C(=O)N[C@@H](Cc1ccc(O)cc1)C(=O)N[C@@H](Cc1ccc(O)cc1)C(=O)N[C@@H](CC(N)=O)C(=O)N[C@@H](Cc1c[nH]c2ccccc12)C(=O)N[C@@H](CC(C)C)C(=O)N[C@H](C(=O)N[C@@H](CCCNC(=N)N)C(=O)N[C@@H](CCC(N)=O)C(=O)N[C@@H](CCCNC(=N)N)C(=O)N[C@@H](Cc1ccc(O)cc1)C(N)=O)[C@@H](C)O)C(C)C)[C@@H](C)O) [Compound 180]
